Reference: US20240124556A1, “KERATIN BD-3, PREPARATION METHOD THEREFOR AND PHARMACEUTICAL COMPOSITION AND USE THEREOF” (INSTITUTE OF MATERIA MEDICA, CHINESE ACADEMY OF MEDICAL …, priority 2019, published 2024)

Tests used:
[1] = system: yeast-induced fever model in SD rats; assay: Yeast-induced fever model of SD rats; type: in vivo; details: for Body temperature 2 hours after modeling / Body temperature 8 hours after modeling / Body temperature 4 hours after modeling / Body temperature 6 hours after modeling: 20% yeast s.c.; for Body temperature 2 hours after modeling: model group 37.5 ± 0.1; for Body temperature 8 hours after modeling: model group 37.6 ± 0.1; for Body temperature 4 hours after modeling / Body temperature 6 hours after modeling: model group 37.7 ± 0.1
Method: • Animals: 230-260 grams of male SD rats; • Medicines: yeast (OXOID LP0021), aspirin (SIGMA A2093), protein BD-3; • Instruments: electronic balance (SARTORIUS BP121S type), electronic clinical thermometer (CITIZEN CT-513W type). • Experiment grouping: • Normal control group; • Model group: yeast fever model; • Positive control group: Aspirin 300 mg/kg group; • Protein BD-3, 10 mg/kg group, 50 mg/kg group. • Method:
(§1) Preparation of experimental animals: After the experimental animals adapt to the experimental environment (temperature 22° C.±2° C., relative humidity 50%±2%) for 1 day. Pre-adaptation to measure rectal temperature at 8:00 and 15:00, rats were fasted and water was taken freely 12 h before experiment, and let the animal to empty its feces before measuring the rectal temperature. Apply petroleum jelly to the electronic thermometer probe before each temperature measurement. Insert the rat rectum 2 cm (can be marked at 2 cm to ensure that the depth of each insertion is consistent), and record the body temperature after the reading is stable.
(§2) Subcutaneous injection of dry yeast to replicate rat fever model: The body temperature of the rats was measured before modeling. Qualified rats with a body temperature of 36.2-37.3° C. were selected and randomly divided into groups with 8 rats in each group. After oral administration of aspirin and different doses of protein BD-3, 20% yeast suspension (10 ml/kg) was injected subcutaneously immediately, and the normal control group was injected intraperitoneally with an equal volume of normal saline. The body temperatures of the rats were monitored after 2 hours for a total of 8 hours.
(§3) According to the body temperature measured at each time point on the day of the experiment, calculate the mean, standard deviation and standard error of the body temperature of each group of rats. The data of each group was compared with TTEST, and P<0.05 was considered as a significant difference.

[2] = system: acetic acid writhing in ICR mice; assay: Acetic acid writhing in ICR mice; type: in vivo; details: for Writhing incubation period: 0.6% acetic acid i.p., model group 204.2 ± 19.6; for Frequency of writhing: within 15 minutes, model group 33.3 ± 2.5
Method: • Animals: male ICR mice; • Drugs and reagents: aspirin, physiological saline, glacial acetic acid, protein BD-3. • Experiment grouping: • Model group; • Aspirin 300 mg/kg group; • Protein BD-3, 50 mg/kg group, 200 mg/kg group.
One day after the experimental animals adapt to the environment, Aspirin 300 mg/kg, protein BD-3 50 mg/kg, 200 mg/kg were given orally one hour in advance, and the administration volume was 10 ml/kg; Then, 0.6% acetic acid solution was injected intraperitoneally, and the incubation period (seconds) and frequency of writhing in the animal was observed within 15 minutes.
Calculate the mean and standard error of the data in each group. Compared with the model group by TTEST, P<0.05 was considered as statistically different.

[3] = system: PLO-induced epilepsy in mice; assay: Pilocarpine (PLO) induced convulsive epilepsy in mice; type: in vivo, ICR mice; details: for mortality rate / Grade IV seizure rate / Cases of Grade IV / Cases of deaths: PLO 225 mg/kg i.p.; for mortality rate / Cases of deaths: model group 0; for Grade IV seizure rate: model group 80%; for Cases of Grade IV / Cases of deaths: of 10 mice; for Cases of Grade IV: 30 min observation, model group 8; for Grade IV seizure incubation period / Grade II seizure incubation period / Grade III seizure incubation period: mean ± SEM; for Grade IV seizure incubation period: maximum recorded 1800 seconds, model group 894 ± 164; for Grade II seizure incubation period: model group 86 ± 5; for Grade III seizure incubation period: model group 142 ± 6
Method: • Animals: male ICR mice; • Drugs: Pilocarpine HCl (PLO, pilocarpine, pilocarpine hydrochloride), Diazepam (diazepam tablets), protein BD-3. • Experiment grouping: • Model group: • Diazepam 2 mg/kg group; • Protein BD-3, 50 mg/kg group, 200 mg/kg group.
The drug was administered once in the afternoon the day before modeling, PLO-225 mg/kg (modeling agent) was injected intraperitoneally 1 hour after the test drug was administered intragastrically on the day of modeling. And positive drug can be administered once 20 minutes before modeling. Observe for 30 minutes after PLO injection.
Observation indicators: (1)Seizure situation: the time of seizures from Grade II to Grade IV; (2)the time to death.
Seizure grade: Refer to Racine grading standard: Grade 0: No response; Grade I: manifested as twitching of facial muscles or the corners of the mouth; Grade II: can nod; Grade III: twitching of one limb; Grade IV: rigidity or body twitching; Grade V: generalized epilepsy (generalized tonic seizures).
Count the number of Grade IV seizures and deaths in each group of mice in the experiment; Grade II, III and IV incubation period. […] Chi-square test was used for statistics of the number of cases. The mean value and standard error of the incubation period were calculated, and TTEST was used to compare the model group with other groups. P<0.05 was considered as a significant difference.

[4] = system: lipopolysaccharide (LPS) induced fever model in SD rats; assay: Lipopolysaccharide (LPS) induced fever in SD rats; type: in vivo; details: for Body temperature 2 hours after modeling / Body temperature 4 hours after modeling / Body temperature 6 hours after modeling / Body temperature 8 hours after modeling: LPS 20 μg/kg i.p.; for Body temperature 2 hours after modeling: model group 37.6 ± 0.1; for Body temperature 4 hours after modeling: model group 37.8 ± 0.1; for Body temperature 6 hours after modeling / Body temperature 8 hours after modeling: model group 37.8 ± 0.2
Method: • Animals: 230-260 grams of male SD rats; • Drugs: lipopolysaccharide (LPS, SIGMA L-2880), aspirin (SIGMA A2093), protein BD-3; Instruments: electronic balance (SARTORIUS BP121S type), electronic clinical thermometer (CITIZEN CT-513W type). • Experiment grouping: • Normal control group; • Model group: lipopolysaccharide fever model; • Positive control group: Aspirin 300 mg/kg group; • Protein BD-3, 10 mg/kg group, 50 mg/kg group. • Method: the method of intraperitoneal injection of Lipopolysaccharide to replicate rat fever model.
as §1
as §2, with “Intraperitoneal” for “Subcutaneous”, “lipopolysaccharide” for “dry yeast”, “lipopolysaccharide (20 μg/kg, 2” for “20% yeast suspension (10”, “intraperitoneally” for “subcutaneously”
as §3

[5] = summary statement, no dose given

B1: BD-3: recombinant keratin, amino acid sequence SEQ ID NO:1, expressed in E. coli, band around 43 kD; tested material prepared in Example 4 (protein, listed as Bos taurus)
chain: MSYSCCLPNLSFRSSCSSRPCVPSSCCGTTLPGACNIPANVGSCNWFCEGSFNGSEKETMQFLNDRLASYLEKVRQLERDNAELESRILERSQQKILANKAENARLVVQIDNAKLAADDFRTKYQTELGLRQLVESDINGLRRILDELTLCKSDLEAQVESLKEELICLKQNHEQEVNTLRSQLGDRLNVEVDAAPTVDLNRVLNETRAQYEALVETNRRDVEEWYIRQTEELNKQVVSSSEQLQSYQAEIIELRRTVNALEVELQAQHNLRDSLENTLTETEARYSCQLAQVQGLIGNVESQLAEIRSDLERQNQEYQVLLDVRARLECEINTYRGLLDSEDCKLPCNPCATTNASSVGSCVTNPCTPCGPRSRFGPCNTFGC
Body temperature 2 hours after modeling ([1]; BD-3 10 mg/kg oral): 37.0 ± 0.2 °C | Body temperature 8 hours after modeling ([1]; BD-3 10 mg/kg oral): 37.4 ± 0.1 °C | Body temperature 4 hours after modeling ([1]; BD-3 10 mg/kg oral): 37.3 ± 0.1 °C | Body temperature 6 hours after modeling ([1]; BD-3 10 mg/kg oral): 37.4 ± 0.1 °C | Body temperature 2 hours after modeling ([1]; BD-3 50 mg/kg oral): 36.9 ± 0.1 °C | Body temperature 8 hours after modeling ([1]; BD-3 50 mg/kg oral): 37.3 ± 0.1 °C | Body temperature 4 hours after modeling ([1]; BD-3 50 mg/kg oral): 37.2 ± 0.1 °C | Body temperature 6 hours after modeling ([1]; BD-3 50 mg/kg oral): 37.4 ± 0.1 °C | Effect on body temperature of model rats (in words) ([1]; different doses of BD-3 (10 mg/kg, 50 mg/kg), at 2 hours and 4 hours after modeling, P<0.05 vs model group): can significantly inhibit the increase in body temperature of model rats | Summary: antipyretic effect in yeast fever model (in words) [1, 5]: can significantly inhibit the increase in body temperature at 2 hours and 4 hours after modeling | Writhing incubation period ([2]; BD-3 50 mg/kg oral): 221.5 ± 28.4 s | Frequency of writhing ([2]; BD-3 50 mg/kg oral): 24.7 ± 3.0 times | Times of writhing vs model group (in words) ([2]; BD-3 50 mg/kg, P<0.05): can significantly reduce the times of writhing in mice | Writhing incubation period ([2]; BD-3 200 mg/kg oral): 189.8 ± 10.4 s | Frequency of writhing ([2]; BD-3 200 mg/kg oral): 29.5 ± 4.7 times | Summary: analgesic effect, writhing (in words) [2, 5]: can significantly reduce the number of writhing times in mice | Epilepsy Grade IV incubation period vs model group (in words) ([3]; BD-3 50 mg/kg): statistically different from the model group | mortality rate ([3]; BD-3 50 mg/kg intragastric): 0 | Grade IV seizure rate ([3]; BD-3 50 mg/kg intragastric): 30% | Cases of Grade IV ([3]; BD-3 50 mg/kg intragastric): 3 | Cases of deaths ([3]; BD-3 50 mg/kg intragastric): 0 | Grade IV seizure incubation period ([3]; BD-3 50 mg/kg): 1573 ± 138 s | Grade II seizure incubation period ([3]; BD-3 50 mg/kg): 91 ± 6 s | Grade III seizure incubation period ([3]; BD-3 50 mg/kg): 155 ± 12 s | Epilepsy Grade III incubation period vs model group (in words) ([3]; BD-3 200 mg/kg): statistically different from the model group | mortality rate ([3]; BD-3 200 mg/kg intragastric): 0 | Grade IV seizure rate ([3]; BD-3 200 mg/kg intragastric): 60% | Cases of Grade IV ([3]; BD-3 200 mg/kg intragastric): 6 | Cases of deaths ([3]; BD-3 200 mg/kg intragastric): 0 | Grade IV seizure incubation period ([3]; BD-3 200 mg/kg): 1181 ± 203 s | Grade II seizure incubation period ([3]; BD-3 200 mg/kg): 99 ± 5 s | Grade III seizure incubation period ([3]; BD-3 200 mg/kg): 183 ± 12 s | Summary: effect on epilepsy incubation period, PLO model (in words) [3, 5]: can significantly prolong the incubation period of class III and class IV epilepsy in mice | Body temperature 2 hours after modeling ([4]; BD-3 10 mg/kg oral): 37.6 ± 0.1 °C | Body temperature 4 hours after modeling ([4]; BD-3 10 mg/kg oral): 37.9 ± 0.2 °C | Body temperature 6 hours after modeling ([4]; BD-3 10 mg/kg oral): 37.9 ± 0.2 °C | Body temperature 8 hours after modeling ([4]; BD-3 10 mg/kg oral): 37.6 ± 0.2 °C | Body temperature 2 hours after modeling ([4]; BD-3 50 mg/kg oral): 37.2 ± 0.2 °C | Body temperature 4 hours after modeling ([4]; BD-3 50 mg/kg oral): 37.3 ± 0.2 °C | Body temperature 6 hours after modeling ([4]; BD-3 50 mg/kg oral): 37.7 ± 0.3 °C | Body temperature 8 hours after modeling ([4]; BD-3 50 mg/kg oral): 37.6 ± 0.2 °C | Effect on body temperature of model rats (in words) ([4]; BD-3 50 mg/kg, at 2 hours and 4 hours after modeling, P<0.05 vs model group): can reduce the body temperature of model rats | Summary: antipyretic effect in LPS fever model (in words) [4, 5]: has a significant effect of reducing body temperature rise at 2 hours and 4 hours after modeling
